# Assay results taken from EP4592322A1.
# B1: trimucrin variant RR (protein)
# chain: EAGEECDCGSPENPCCDAATCKLRPGAQCAEGLCCDQCRFKKKRTICRRAKGDRRDDRCTGQSADCPRNRLYG
# Molecular target: integrin alpha(IIb)beta(3) (UniProt P08514)
# Assay: cell-based or functional assay
binder,measurement,value
B1,IC50: platelet aggregation,52.5 nM
same,Ratio (RR/corresponding protein) of IC50 for platelet aggregation (ratio (RR/corresponding protein)),1
